This experiment has as its target T1, ephrinB2-Fc (human ephrinB2 residues 1-229, Factor XA cleavage site, human IgG1 residues 100-330) (human, UniProt P52799 28-229).
T1 chain: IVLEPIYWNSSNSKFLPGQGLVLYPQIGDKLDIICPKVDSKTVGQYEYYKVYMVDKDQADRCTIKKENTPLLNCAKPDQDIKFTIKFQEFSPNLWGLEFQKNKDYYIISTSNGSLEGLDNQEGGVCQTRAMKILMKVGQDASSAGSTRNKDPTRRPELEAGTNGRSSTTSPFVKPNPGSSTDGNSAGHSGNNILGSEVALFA
Kind of experiment: ELISA.

B1: Wildtype NiV G ectodomain (Nipah virus attachment glycoprotein G, residues 71-602, N-terminal His6-tag) (domain or fragment)
chain: QNYTRSTDNQAVIKDALQGIQQQIKGLADKIGTEIGPKVSLIDTSSTITIPANIGLLGSKISQSTASINENVNEKCKFTLPPLKIHECNISCPNPLPFREYRPQTEGVSNLVGLPNNICLQKTSNQILKPKLISYTLPVVGQSGTCITDPLLAMDEGYFAYSHLERIGSCSRGVSKQRIIGVGEVLDRGDEVPSLFMTNVWTPPNPNTVYHCSAVYNNEFYYVLCAVSTVGDPILNSTYWSGSLMMTRLAVKPKSNGGGYNQHQLALRSIEKGRYDKVMPYGPSGIKQGDTLYFPAVGFLVRTEFKYNDSNCPITKCQYSKPENCRLSMGIRPNSHYILRSGLLKYNLSDGENPKVVFIEISDQRLSIGSPSKIYDSLGQPVFYQASFSWDTMIKFGDVLTVNPLVVNWRNNTVISRPGQSQCPRFNTCPEICWEGVYNDAFLIDRINWISAGVFLDSNQTAENPVFTVFKDNEILYRAQLASEDTNAQKTITNCFLLKNKIWCISLVEIYDTGDNVIRPKLFAVKIPEQCT
For the molecule B1, the Ki was 0.038 nM.
